# Test results reported in paper PMC12674617 (2025).
# B1: full-length BICD2 tagged on the C-terminus with mini-TurboID (BICD2-mTrbo) [human] / KIF5B [human (endogenous in HEK293)] (parent complex)
# chain 1: MSAPSEEEEYARLVMEAQPEWLRAEVKRLSHELAETTREKIQAAEYGLAVLEEKHQLKLQFEELEVDYEAIRSEMEQLKEAFGQAHTNHKKVAADGESREESLIQESASKEQYYVRKVLELQTELKQLRNVLTNTQSENERLASVAQELKEINQNVEIQRGRLRDDIKEYKFREARLLQDYSELEEENISLQKQVSVLRQNQVEFEGLKHEIKRLEEETEYLNSQLEDAIRLKEISERQLEEALETLKTEREQKNSLRKELSHYMSINDSFYTSHLHVSLDGLKFSDDAAEPNNDAEALVNGFEHGGLAKLPLDNKTSTPKKEGLAPPSPSLVSDLLSELNISEIQKLKQQLMQMEREKAGLLATLQDTQKQLEHTRGSLSEQQEKVTRLTENLSALRRLQASKERQTALDNEKDRDSHEDGDYYEVDINGPEILACKYHVAVAEAGELREQLKALRSTHEAREAQHAEEKGRYEAEGQALTEKVSLLEKASRQDRELLARLEKELKKVSDVAGETQGSLSVAQDELVTFSEELANLYHHVCMCNNETPNRVMLDYYREGQGGAGRTSPGGRTSPEARGRRSPILLPKGLLAPEAGRADGGTGDSSPSPGSSLPSPLSDPRREPMNIYNLIAIIRDQIKHLQAAVDRTTELSRQRIASQELGPAVDKDKEALMEEILKLKSLLSTKREQITTLRTVLKANKQTAEVALANLKSKYENEKAMVTETMMKLRNELKALKEDAATFSSLRAMFATRCDEYITQLDEMQRQLAAAEDEKKTLNSLLRMAIQQKLALTQRLELLELDHEQTRRGRAKAAPKTKPATPSL
# chain 2: MADLAECNIKVMCRFRPLNESEVNRGDKYIAKFQGEDTVVIASKPYAFDRVFQSSTSQEQVYNDCAKKIVKDVLEGYNGTIFAYGQTSSGKTHTMEGKLHDPEGMGIIPRIVQDIFNYIYSMDENLEFHIKVSYFEIYLDKIRDLLDVSKTNLSVHEDKNRVPYVKGCTERFVCSPDEVMDTIDEGKSNRHVAVTNMNEHSSRSHSIFLINVKQENTQTEQKLSGKLYLVDLAGSEKVSKTGAEGAVLDEAKNINKSLSALGNVISALAEGSTYVPYRDSKMTRILQDSLGGNCRTTIVICCSPSSYNESETKSTLLFGQRAKTIKNTVCVNVELTAEQWKKKYEKEKEKNKILRNTIQWLENELNRWRNGETVPIDEQFDKEKANLEAFTVDKDITLTNDKPATAIGVIGNFTDAERRKCEEEIAKLYKQLDDKDEEINQQSQLVEKLKTQMLDQEELLASTRRDQDNMQAELNRLQAENDASKEEVKEVLQALEELAVNYDQKSQEVEDKTKEYELLSDELNQKSATLASIDAELQKLKEMTNHQKKRAAEMMASLLKDLAEIGIAVGNNDVKQPEGTGMIDEEFTVARLYISKMKSEVKTMVKRCKQLESTQTESNKKMEENEKELAACQLRISQHEAKIKSLTEYLQNVEQKKRQLEESVDALSEELVQLRAQEKVHEMEKEHLNKVQTANEVKQAVEQQIQSHRETHQKQISSLRDEVEAKAKLITDLQDQNQKMMLEQERLRVEHEKLKATDQEKSRKLHELTVMQDRREQARQDLKGLEETVAKELQTLHNLRKLFVQDLATRVKKSAEIDSDDTGGSAAQKQKISFLENNLEQLTKVHKQLVRDNADLRCELPKLEKRLRATAERVKALESALKEAKENASRDRKRYQQEVDRIKEAVRSKNMARRGHSAQIAKPIRPGQHPAASPTHPSAIRGGGAFVQNSQPVAVRGGGGKQV
# Variants of: B1
# Assay: proximity biotinylation, streptavidin bead purification, western blot quantification; parent: 1; read off a plot
row,ratio to parent,Variant
1,~0.78,chain 1 R694C
2,~0.5,chain 1 R747C
3,~0.86,chain 1 N188T
